According to US20210301277:

T1: human TF (Innovin, DADE/Behring), P13726
T1 chain: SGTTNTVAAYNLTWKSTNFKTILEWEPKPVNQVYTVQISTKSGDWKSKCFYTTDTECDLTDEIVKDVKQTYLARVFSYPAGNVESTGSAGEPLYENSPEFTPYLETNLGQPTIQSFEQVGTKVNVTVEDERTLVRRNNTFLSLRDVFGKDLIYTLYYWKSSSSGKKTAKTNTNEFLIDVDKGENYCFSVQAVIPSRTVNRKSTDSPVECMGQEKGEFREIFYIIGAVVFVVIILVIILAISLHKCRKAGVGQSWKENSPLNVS

B1: FIXgla-egf1FVIIa (protein)
chain: YNSGKLEEFVQGNLERECMEEKCSFEEAREVFENTERTTEFWKQYVDGDQCESNPCLNGGSCKDDINSYECWCPFGFEGKNCETHKDDQLICVNENGGCEQYCSDHTGTKRSCRCHEGYSLLADGVSCTPTVEYPCGKIPILEKRNASKPQGRIVGGKVCPKGECPWQVLLLVNGAQLCGGTLINTIWVVSAAHCFDKIKNWRNLIAVLGEHDLSEHDGDEQSRRVAQVIIPSTYVPGTTNHDIALLRLHQPVVLTDHVVPLCLPERTFSERTLAFVRFSLVSGWGQLLDRGATALELMVLNVPRLMTQDCLQQSRKVGDSPNITEYMFCAGYSDGSKDSCKGDSGGPHATHYRGTWYLTGIVSWGQGCATVGHFGVYTRVSQYIEWLQKLMRSEPRPGVLLRAPFP
B2: PCgla-egf1FVIIa (protein)
chain 1: ANSFLEELRHSSLERECIEEICDFEEAKEIFQNVDDTLAFWSKHVDGDQCLVLPLEHPCASLCCGHGTCIDGIGSFSCDCRSGWEGRFCQRKDDQLICVNENGGCEQYCSDHTGTKRSCRCHEGYSLLADGVSCTPTVEYPCGKIPILEKRNASKPQGR
chain 2: IVGGKVCPKGECPWQVLLLVNGAQLCGGTLINTIWVVSAAHCFDKIKNWRNLIAVLGEHDLSEHDGDEQSRRVAQVIIPSTYVPGTTNHDIALLRLHQPVVLTDHVVPLCLPERTFSERTLAFVRFSLVSGWGQLLDRGATALELMVLNVPRLMTQDCLQQSRKVGDSPNITEYMFCAGYSDGSKDSCKGDSGGPHATHYRGTWYLTGIVSWGQGCATVGHFGVYTRVSQYIEWLQKLMRSEPRPGVLLRAPFP

Target: T1, human TF (Innovin, DADE/Behring), P13726

Row | Protein | FX activation in the presence of 1 nM TF (FXa generation rates, mOD/min) | TF-dependent activity (FX activation, cleavage of chromogenic FXa substrate at 405 nm)
1 | B1 | The lack of FX activation, even at 100-fold higher concentration than that of rFVIIa | –
2 | B2 | The lack of FX activation, even at 100-fold higher concentration than that of rFVIIa | the activity of PCgla-egf1FVIIa was identical to the vehicle control
